# Results published in patent publication US7105647.
# Columns and labels:
# [1] = biological target: Human CLOCK, full length (human) (UniProt O15516); experiment: cell-based or functional assay
# [2] = biological target: MOP1/HIF1α (human) (UniProt Q16665); experiment: cell-based or functional assay
# [3] = biological target: MOP2 (human) (UniProt Q99814); experiment: cell-based or functional assay
# [4] = biological target: MOP4 (human) (UniProt Q99743); experiment: cell-based or functional assay
# MOP4 (human), sequence (Q99743 other isoform, or with tags, fused parts or gaps limits assumed): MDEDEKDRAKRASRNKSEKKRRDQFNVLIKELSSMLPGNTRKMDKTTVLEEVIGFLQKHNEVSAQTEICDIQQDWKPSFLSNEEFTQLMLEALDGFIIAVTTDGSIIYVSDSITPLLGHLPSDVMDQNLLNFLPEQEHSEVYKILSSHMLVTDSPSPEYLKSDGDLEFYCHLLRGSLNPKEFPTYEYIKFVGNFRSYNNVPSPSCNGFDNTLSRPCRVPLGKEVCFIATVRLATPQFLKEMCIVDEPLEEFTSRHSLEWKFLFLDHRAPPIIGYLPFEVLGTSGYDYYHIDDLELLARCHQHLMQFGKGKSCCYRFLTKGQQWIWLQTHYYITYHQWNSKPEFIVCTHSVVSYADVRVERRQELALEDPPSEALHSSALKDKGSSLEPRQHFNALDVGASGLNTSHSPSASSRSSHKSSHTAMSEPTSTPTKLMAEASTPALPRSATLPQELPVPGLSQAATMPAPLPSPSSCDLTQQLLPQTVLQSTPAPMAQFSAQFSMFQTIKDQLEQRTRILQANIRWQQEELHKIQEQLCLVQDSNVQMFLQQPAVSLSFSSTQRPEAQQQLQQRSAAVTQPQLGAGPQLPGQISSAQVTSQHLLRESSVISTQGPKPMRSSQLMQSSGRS
# [5] = biological target: AH receptor nuclear translocator (ARNT), full length (human) (UniProt P27540); experiment: yeast two-hybrid, lacZ reporter (FIG. 3)
# AH receptor nuclear translocator (ARNT), full length (human), sequence (P27540 whole entry): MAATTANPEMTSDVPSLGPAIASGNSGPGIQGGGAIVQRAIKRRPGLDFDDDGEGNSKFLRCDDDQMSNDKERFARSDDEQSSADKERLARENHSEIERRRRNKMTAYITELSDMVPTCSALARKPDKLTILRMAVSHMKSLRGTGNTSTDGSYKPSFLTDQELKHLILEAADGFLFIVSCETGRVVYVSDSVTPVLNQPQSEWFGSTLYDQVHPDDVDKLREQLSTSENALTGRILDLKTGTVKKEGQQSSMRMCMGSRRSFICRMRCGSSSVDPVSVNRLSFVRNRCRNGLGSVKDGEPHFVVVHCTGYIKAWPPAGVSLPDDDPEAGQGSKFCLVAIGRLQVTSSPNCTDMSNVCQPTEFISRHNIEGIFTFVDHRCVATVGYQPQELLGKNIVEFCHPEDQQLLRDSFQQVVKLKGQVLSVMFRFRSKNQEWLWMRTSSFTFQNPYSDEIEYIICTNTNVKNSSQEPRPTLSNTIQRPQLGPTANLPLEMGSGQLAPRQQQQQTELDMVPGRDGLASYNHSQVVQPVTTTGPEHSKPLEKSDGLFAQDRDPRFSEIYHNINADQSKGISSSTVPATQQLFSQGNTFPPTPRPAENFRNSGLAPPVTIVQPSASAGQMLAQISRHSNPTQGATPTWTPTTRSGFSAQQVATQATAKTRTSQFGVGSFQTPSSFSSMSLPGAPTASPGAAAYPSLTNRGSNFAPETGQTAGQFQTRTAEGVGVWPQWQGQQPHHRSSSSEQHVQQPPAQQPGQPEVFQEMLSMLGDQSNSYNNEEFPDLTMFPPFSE
# [6] = biological target: AH receptor nuclear translocator (ARNT), full length (human) (UniProt P27540); experiment: yeast two-hybrid, Galacto-Light lacZ assay, 1 µM βNF
# [7] = biological target: AH receptor nuclear translocator (ARNT), full length (human) (UniProt P27540); experiment: yeast two-hybrid, Galacto-Light lacZ assay, with vs without 1 µM βNF
# MOP1/HIF1α (human), sequence (Q16665 whole entry): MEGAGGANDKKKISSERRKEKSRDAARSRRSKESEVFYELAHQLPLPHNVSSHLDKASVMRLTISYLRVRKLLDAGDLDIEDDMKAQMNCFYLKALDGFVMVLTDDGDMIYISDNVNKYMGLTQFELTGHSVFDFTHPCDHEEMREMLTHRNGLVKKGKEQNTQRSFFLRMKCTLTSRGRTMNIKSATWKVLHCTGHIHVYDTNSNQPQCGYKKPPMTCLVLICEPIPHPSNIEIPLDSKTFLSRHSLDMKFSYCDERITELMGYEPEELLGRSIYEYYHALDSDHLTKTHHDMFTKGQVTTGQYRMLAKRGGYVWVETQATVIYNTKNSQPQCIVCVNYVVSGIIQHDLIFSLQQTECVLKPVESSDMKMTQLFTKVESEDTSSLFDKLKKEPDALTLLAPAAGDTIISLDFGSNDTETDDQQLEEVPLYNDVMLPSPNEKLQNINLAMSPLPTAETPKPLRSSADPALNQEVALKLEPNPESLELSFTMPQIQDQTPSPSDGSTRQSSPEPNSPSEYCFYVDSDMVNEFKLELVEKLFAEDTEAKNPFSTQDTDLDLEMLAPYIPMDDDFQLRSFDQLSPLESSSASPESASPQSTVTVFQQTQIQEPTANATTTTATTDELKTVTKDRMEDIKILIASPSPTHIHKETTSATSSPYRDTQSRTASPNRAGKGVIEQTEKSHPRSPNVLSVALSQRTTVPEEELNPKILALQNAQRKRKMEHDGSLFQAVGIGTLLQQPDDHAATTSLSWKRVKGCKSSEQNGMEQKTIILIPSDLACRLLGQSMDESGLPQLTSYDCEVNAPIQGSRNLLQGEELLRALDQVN
# Human CLOCK, full length (human), sequence (O15516 whole entry): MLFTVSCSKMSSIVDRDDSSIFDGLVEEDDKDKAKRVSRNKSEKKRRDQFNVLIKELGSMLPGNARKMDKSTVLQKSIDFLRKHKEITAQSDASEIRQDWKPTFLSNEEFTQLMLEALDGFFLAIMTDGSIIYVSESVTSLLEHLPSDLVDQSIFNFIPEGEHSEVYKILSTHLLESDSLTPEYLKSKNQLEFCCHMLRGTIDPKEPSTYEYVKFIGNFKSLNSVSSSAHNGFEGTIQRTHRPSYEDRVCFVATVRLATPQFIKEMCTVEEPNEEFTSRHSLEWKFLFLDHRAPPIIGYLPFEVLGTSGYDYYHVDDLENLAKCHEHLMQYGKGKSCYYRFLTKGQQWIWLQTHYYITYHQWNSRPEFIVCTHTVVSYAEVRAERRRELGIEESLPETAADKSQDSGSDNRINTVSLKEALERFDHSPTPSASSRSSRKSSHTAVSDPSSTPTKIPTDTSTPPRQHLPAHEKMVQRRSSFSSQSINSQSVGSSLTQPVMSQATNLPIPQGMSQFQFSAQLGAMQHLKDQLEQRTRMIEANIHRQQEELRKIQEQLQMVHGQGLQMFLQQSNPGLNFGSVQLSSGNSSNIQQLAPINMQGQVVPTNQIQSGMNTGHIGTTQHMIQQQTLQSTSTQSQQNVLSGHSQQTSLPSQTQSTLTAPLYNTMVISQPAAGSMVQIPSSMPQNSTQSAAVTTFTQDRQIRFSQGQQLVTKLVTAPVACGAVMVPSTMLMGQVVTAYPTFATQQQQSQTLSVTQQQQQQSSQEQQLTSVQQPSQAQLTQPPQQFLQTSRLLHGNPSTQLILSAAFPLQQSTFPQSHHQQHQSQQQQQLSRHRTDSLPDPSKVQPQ
# MOP2 (human), sequence (Q99814 other isoform, or with tags, fused parts or gaps limits assumed): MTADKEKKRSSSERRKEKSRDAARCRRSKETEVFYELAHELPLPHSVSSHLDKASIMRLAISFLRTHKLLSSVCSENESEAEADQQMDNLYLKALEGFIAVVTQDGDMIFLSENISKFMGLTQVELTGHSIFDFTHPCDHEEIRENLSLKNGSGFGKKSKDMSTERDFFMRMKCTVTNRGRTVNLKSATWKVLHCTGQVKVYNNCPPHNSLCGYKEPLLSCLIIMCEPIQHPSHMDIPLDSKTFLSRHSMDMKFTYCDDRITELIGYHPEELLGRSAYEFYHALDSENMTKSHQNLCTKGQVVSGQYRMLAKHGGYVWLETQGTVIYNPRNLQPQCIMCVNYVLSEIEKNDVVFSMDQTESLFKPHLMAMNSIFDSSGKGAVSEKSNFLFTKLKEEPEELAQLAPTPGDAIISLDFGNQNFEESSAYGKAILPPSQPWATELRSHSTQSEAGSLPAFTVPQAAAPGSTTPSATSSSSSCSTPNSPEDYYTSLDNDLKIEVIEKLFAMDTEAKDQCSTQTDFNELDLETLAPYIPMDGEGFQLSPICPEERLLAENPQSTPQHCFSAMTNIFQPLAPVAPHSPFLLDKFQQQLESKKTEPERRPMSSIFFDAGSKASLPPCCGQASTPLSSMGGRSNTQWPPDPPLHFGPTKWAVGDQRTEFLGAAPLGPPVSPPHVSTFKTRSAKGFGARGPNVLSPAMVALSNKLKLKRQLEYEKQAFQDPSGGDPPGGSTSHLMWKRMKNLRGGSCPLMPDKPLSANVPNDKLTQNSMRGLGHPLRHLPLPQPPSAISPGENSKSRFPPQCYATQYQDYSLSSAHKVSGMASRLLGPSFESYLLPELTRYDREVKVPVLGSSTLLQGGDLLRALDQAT
"luciferase reporter with three copies of the M34 element, COS-1 cells [1]","luciferase reporter with six copies of the M13 element, COS-1 cells [2]","luciferase reporter with six copies of the M13 element, COS-1 cells [3]","luciferase reporter with three copies of the M34 element, COS-1 cells [4]",fold relative to the LexAARNT-AHR interaction [5],fold above background (lacZ reporter activity) [6],fold over the same pair in the absence of ligand [7],Substance
5.6 fold,3.3 fold,3.6 fold,3.3 fold,,,,full-length MOP3 (cDNA form identified by the yeast interaction trap)
,,,,14.7 times,913 fold,6.4 fold,LexAAHR (from UniProt P0A7C2 1-202; P30561 1-805)
